Results: publication doi:10.1101/570390

Target: mature KLK4 from recombinant pro-KLK4 expressed in Sf9 cells, activated with thermolysin (human) (UniProt Q9Y5K2)
Test: enzyme inhibition assay

UniProt Q9Y5K2, sequence (Q9Y5K2 31-254): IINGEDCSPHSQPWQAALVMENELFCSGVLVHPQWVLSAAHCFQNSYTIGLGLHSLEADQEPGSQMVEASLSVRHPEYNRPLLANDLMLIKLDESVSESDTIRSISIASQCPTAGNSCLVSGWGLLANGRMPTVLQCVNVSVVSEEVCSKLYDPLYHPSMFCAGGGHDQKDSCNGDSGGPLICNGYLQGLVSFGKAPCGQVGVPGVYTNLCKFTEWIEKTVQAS

Ki | Substance
0.04 nM | SFTI-FCQR(Asn14), bicyclic (peptide)
3.48 nM | SFTI-FCQR(Asn14)[1,14], monocyclic (1,14-acyclic backbone, disulfide-bridged) (peptide)
